Test results as given in patent publication US20220119825A1, “SCALABLE PEPTIDE-GPCR INT[…] SYSTEMS” (THE TRUSTEES OF COLUMBIA UNIVERSITY IN THE CITY OF NEW YORK, priority 2019, published 2022).

Key:
Test in all cases: cell-based or functional assay
[1] = biological target: T1, Pr.Ste2, Ste2-like mating GPCR of Penicillium chrysogenum (Penicillium chrysogenum)
T1 chain: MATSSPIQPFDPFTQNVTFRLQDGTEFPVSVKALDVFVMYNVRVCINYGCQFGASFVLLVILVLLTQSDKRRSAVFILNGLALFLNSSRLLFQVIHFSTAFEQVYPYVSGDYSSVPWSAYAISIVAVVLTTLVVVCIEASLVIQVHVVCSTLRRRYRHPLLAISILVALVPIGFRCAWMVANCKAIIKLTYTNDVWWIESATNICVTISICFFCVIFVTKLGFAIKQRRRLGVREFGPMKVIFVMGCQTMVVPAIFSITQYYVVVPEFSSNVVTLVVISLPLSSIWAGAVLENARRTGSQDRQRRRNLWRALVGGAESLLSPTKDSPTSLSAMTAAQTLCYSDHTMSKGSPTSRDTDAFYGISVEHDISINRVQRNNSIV

[2] = biological target: T2, Sca.Ste2, Ste2-like mating GPCR, code Sca (Saccharomyces castellii (Table 3 prints …))
T2 chain: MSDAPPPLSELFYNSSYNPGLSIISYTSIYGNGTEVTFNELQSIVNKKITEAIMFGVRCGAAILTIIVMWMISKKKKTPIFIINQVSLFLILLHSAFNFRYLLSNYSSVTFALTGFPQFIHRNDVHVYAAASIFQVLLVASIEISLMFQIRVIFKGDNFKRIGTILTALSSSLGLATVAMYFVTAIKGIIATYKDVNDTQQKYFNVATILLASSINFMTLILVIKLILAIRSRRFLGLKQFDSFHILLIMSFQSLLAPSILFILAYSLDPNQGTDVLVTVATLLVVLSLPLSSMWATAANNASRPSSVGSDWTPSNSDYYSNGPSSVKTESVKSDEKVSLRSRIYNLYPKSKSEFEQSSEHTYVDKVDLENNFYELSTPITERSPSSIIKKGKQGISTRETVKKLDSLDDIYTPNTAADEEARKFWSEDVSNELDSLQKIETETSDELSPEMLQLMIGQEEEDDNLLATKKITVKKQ

[3] = biological target: T3, Nc.Ste2, Ste2-like mating GPCR of Neurospora crassa (Neurospora crassa)
T3 chain: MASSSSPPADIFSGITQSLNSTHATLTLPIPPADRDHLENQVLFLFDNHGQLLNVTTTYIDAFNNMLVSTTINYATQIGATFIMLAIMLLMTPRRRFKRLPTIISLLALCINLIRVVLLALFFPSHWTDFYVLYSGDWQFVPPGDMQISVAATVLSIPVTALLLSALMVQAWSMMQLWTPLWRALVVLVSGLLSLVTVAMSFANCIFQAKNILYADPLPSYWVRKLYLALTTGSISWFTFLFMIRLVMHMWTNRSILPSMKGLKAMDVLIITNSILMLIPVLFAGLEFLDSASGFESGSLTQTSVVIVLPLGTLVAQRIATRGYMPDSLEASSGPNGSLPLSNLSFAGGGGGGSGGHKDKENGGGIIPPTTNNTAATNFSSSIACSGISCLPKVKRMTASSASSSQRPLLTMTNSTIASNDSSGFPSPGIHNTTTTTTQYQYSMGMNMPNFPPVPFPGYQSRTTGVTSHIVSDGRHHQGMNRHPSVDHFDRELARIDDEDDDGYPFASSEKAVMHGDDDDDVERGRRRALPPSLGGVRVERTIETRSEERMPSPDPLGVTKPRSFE

[4] = biological target: T4, Pd.Ste2, Ste2-like mating GPCR of Pseudogymnoascus destructans (Pseudogymnoascus destructans)
T4 chain: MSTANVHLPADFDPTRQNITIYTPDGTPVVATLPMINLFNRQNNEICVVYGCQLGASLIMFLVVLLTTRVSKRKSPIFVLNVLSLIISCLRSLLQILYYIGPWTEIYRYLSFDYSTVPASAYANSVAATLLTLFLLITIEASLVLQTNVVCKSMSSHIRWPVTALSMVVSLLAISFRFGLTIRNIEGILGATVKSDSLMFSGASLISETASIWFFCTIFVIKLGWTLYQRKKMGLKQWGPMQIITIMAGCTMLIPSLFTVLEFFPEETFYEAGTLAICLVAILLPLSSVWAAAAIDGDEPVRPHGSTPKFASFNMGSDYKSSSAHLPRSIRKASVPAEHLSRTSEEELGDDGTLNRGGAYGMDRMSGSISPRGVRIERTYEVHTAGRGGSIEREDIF

[5] = biological target: T5, Bm.Ste2, Ste2-like mating GPCR of Baudoinia compniacensis (Baudoinia compniacensis)
T5 chain: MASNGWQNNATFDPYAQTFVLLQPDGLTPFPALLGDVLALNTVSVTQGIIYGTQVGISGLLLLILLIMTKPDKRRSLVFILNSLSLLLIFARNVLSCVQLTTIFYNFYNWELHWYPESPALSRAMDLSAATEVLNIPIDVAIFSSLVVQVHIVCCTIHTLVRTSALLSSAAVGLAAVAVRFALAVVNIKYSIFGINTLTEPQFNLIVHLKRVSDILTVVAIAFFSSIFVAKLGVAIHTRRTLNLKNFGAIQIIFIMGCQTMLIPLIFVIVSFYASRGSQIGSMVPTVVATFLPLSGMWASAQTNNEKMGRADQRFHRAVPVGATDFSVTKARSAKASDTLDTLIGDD

WCGHIGQGC [Pr peptide ligand #1 WCGHIGQGC]
Bttm (FUS1p-RFP reporter) [1]: 27.9 fluorescence/A600 (not printed)
EC50 (FUS1p-RFP reporter) [1]: -5.8 log10 M (not printed)
Fold Change (FUS1p-RFP reporter) [1]: 7.4 fold
Span (FUS1p-RFP reporter) [1]: 179 fluorescence/A600 (not printed)
Top (FUS1p-RFP reporter) [1]: 207 fluorescence/A600 (not printed)

NWHWLRLDPGQPLY [Sca peptide ligand #1 NWHWLRLDPGQPLY]
Bttm (FUS1p-RFP reporter) [2]: 24.3 fluorescence/A600 (not printed)
EC50 (FUS1p-RFP reporter) [2]: -8.1 log10 M (not printed)
Fold Change (FUS1p-RFP reporter) [2]: 6.4 fold
Span (FUS1p-RFP reporter) [2]: 131 fluorescence/A600 (not printed)
Top (FUS1p-RFP reporter) [2]: 155 fluorescence/A600 (not printed)

QWCRIHGQSCW [Nc peptide ligand #1 QWCRIHGQSCW]
Bttm (FUS1p-RFP reporter) [3]: 27.6 fluorescence/A600 (not printed)
EC50 (FUS1p-RFP reporter) [3]: -6.3 log10 M (not printed)
Fold Change (FUS1p-RFP reporter) [3]: 10.4 fold
Span (FUS1p-RFP reporter) [3]: 259 fluorescence/A600 (not printed)
Top (FUS1p-RFP reporter) [3]: 287 fluorescence/A600 (not printed)

FCWRPGQPCG [Pd peptide ligand #1 FCWRPGQPCG]
Bttm (FUS1p-RFP reporter) [4]: 28.8 fluorescence/A600 (not printed)
EC50 (FUS1p-RFP reporter) [4]: -7.7 log10 M (not printed)
Fold Change (FUS1p-RFP reporter) [4]: 6.6 fold
Span (FUS1p-RFP reporter) [4]: 161 fluorescence/A600 (not printed)
Top (FUS1p-RFP reporter) [4]: 190 fluorescence/A600 (not printed)

GWIGRCGVPGSSC [Bm peptide ligand #1 GWIGRCGVPGSSC]
Bttm (FUS1p-RFP reporter) [5]: 30.3 fluorescence/A600 (not printed)
EC50 (FUS1p-RFP reporter) [5]: -6.7 log10 M (not printed)
Fold Change (FUS1p-RFP reporter) [5]: 5.2 fold
Span (FUS1p-RFP reporter) [5]: 128 fluorescence/A600 (not printed)
Top (FUS1p-RFP reporter) [5]: 159 fluorescence/A600 (not printed)
